T1: human CTLA4 on CTLA4 Jurkat effector cells (Promega CTLA4 Blockade Assay) (human, UniProt P16410 36-223)
T1 sequence (looked up): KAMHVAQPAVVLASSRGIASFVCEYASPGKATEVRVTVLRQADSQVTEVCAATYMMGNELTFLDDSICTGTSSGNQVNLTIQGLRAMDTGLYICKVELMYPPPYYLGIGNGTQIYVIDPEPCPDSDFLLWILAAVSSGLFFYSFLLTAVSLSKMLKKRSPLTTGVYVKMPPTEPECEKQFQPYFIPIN

T2: recombinant human CTLA4 extracellular domain (human, UniProt P16410 36-161)
T2 construct: extracellular domain; also called huCTLA-4
T2 sequence (looked up): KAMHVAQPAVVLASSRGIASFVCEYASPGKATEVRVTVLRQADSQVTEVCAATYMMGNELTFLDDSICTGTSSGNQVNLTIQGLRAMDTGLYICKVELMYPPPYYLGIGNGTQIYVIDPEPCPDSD

T3: human CTLA4 expressed on the cell surface of CHO cells (human, UniProt P16410 36-223)
T3 construct: whole, on cells; also called CHO-huCTLA4; huCTLA4
T3 sequence (looked up): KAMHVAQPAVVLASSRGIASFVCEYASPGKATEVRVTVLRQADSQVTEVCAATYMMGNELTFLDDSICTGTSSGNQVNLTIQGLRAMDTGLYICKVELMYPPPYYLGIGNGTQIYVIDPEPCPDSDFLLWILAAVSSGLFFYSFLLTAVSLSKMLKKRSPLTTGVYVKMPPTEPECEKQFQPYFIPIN

B1: BA-087-05-19 (antibody, V domains shown)
VH: EVQLVESGGGLVQPGGSLRLSCAASGFTFSHYTMHWVRQAPGKGLEWVSFISYDGNNKYYADSVKGRFTISRDNSKNTLYLQMNSLRAEDTAVYYCARTGWLGPFDYWGQGTLVTVSS
VL: AIQLTQSPSSLSASVGDRVTITCRASQYVGSSYLAWYLQKPGQSPQLLIYGAFSRATGIPARFSGSGSGTEFTLTISSLQSEDFAVYYCQQDGSSPWTFGQGTKVEIK
notes: Detected with anti-human IgG and a molecular weight of 146 kDa was used in SPR, so it was tested as a whole IgG; also called BA-087-05-019; BA-087-05-19 (# 6972)
B2: BA-087-08-32 (antibody, V domains shown)
VH: EVQLVQSGAEVKKPGATVKISCKVSGFTFSHYTMHWIRQSPSRGLEWLGFISYDGNYKYYADSVKGRFTISRDNAKNSLYLQMNSLRAEDTAVYYCARTGWLGPFDYWGQGTLVTVSS
VL: EIVMTQSPATLSVSPGERATLSCRASQSVGSSYLAWYQQKPGKAPKLLIYGAFSRATGVPSRFSGSGSGTDFTLTISSLQPEDFATYYCQQDGSSPWTFGQGTKVEIK
notes: Detected with anti-human IgG and a molecular weight of 146 kDa was used in SPR, so it was tested as a whole IgG; also called BA-087-08-032; BA-087-08-32 (# 6978)

Key:
[1] = target: T1, human CTLA4 on CTLA4 Jurkat effector …; test: cell-based or functional assay
[2] = target: T2, recombinant human CTLA4 extracellular …; test: ELISA, wells coated with human CTLA4, assay pH 7.4; lot 6972 in Tris buffer, T0; unit from the axis Log[ng/mL]
Protocol: (§1) Both ELISA and FACS analysis were used to measure the binding activity. […] The amount of bound antibodies was quantified using anti-human IgG antibody conjugated to HRP. The absorbance at 450 nm in each measurement was proportional to the amount of antibodies bound. […] EC50 value (in ng/mL) for binding to human CTLA4 was determined by absorbance at 450 nm against antibody concentration with Prism variable slope of four-parameter dose-response curve, which was calculated using the nonlinear fit (variable slope, four parameters) model built into GraphPad Prism software (version 7.03). The buffers tested included His buffer (His), Tris buffer (Tris), Glutamine buffer (Glu) and no buffer.

[3] = target: T2, recombinant human CTLA4 extracellular …; test: ELISA, wells coated with human CTLA4, assay pH 7.4; lot 6972 in Glu buffer, T2W; unit from the axis Log[ng/mL]
Protocol: as §1

[4] = target: T2, recombinant human CTLA4 extracellular …; test: ELISA, wells coated with human CTLA4, assay pH 6.0; lot 6972 in Tris buffer, T2W; unit from the axis Log[ng/mL]
Protocol: as §1

[5] = target: T2, recombinant human CTLA4 extracellular …; test: ELISA, wells coated with human CTLA4, assay pH 7.4; lot 6972 in Tris buffer, T2W; unit from the axis Log[ng/mL]
Protocol: as §1

[6] = target: T3, human CTLA4 expressed on the cell …; test: FACS, cells expressing human CTLA4, assay pH 7.4, MFI; lot 6972 in Glu buffer, T0; unit from the axis Log[ng/mL]
Protocol: (§2) The amount of bound antibodies was quantified using anti-human IgG antibody conjugated to fluorophores. The MFI in each reaction was proportional to the amount of antibodies bound. The EC₅₀ value (in ng/mL) for binding to human CTLA4 on cells was determined by MFI of the singlets population against antibody concentration with a Prism variable slope of four-parameter dose-response curve, which was calculated using the nonlinear fit (variable slope, four parameters) model built into GraphPad Prism software (version 7.03).

[7] = target: T3, human CTLA4 expressed on the cell …; test: FACS, cells expressing human CTLA4, assay pH 7.4, MFI; lot 6972 in Glu buffer, T2W; unit from the axis Log[ng/mL]
Protocol: as §2

[8] = target: T3, human CTLA4 expressed on the cell …; test: FACS, cells expressing human CTLA4, assay pH 7.4, MFI; lot 6972 in Tris buffer, T2W; unit from the axis Log[ng/mL]
Protocol: as §2

[9] = target: T3, human CTLA4 expressed on the cell …; test: FACS, cells expressing human CTLA4, assay pH 7.4, MFI; lot 6978 in His buffer, T0; unit from the axis Log[ng/mL]
Protocol: as §2

[10] = target: T3, human CTLA4 expressed on the cell …; test: FACS, cells expressing human CTLA4, assay pH 7.4, MFI; lot 6978 in His buffer, T2W; unit from the axis Log[ng/mL]
Protocol: as §2

[11] = target: T3, human CTLA4 expressed on the cell …; test: FACS, cells expressing human CTLA4, assay pH 7.4, MFI; lot 6978 in Tris buffer, T0; unit from the axis Log[ng/mL]
Protocol: as §2

[12] = target: T3, human CTLA4 expressed on the cell …; test: FACS, cells expressing human CTLA4, assay pH 7.4, MFI; lot 6978 in Tris buffer, T2W; unit from the axis Log[ng/mL]
Protocol: as §2

[13] = target: T2, recombinant human CTLA4 extracellular …; test: ELISA, wells coated with human CTLA4, assay pH 6.0; lot 6978 without test buffer; same column repeated in FIG. 9E and FIG. 9F; unit from the axis Log[ng/mL]
Protocol: as §1

[14] = target: T3, human CTLA4 expressed on the cell …; test: FACS, cells expressing human CTLA4, assay pH 7.4, MFI; lot 6978 control without test buffer; same column repeated in FIG. 10E and FIG. 10F; unit from the axis Log[ng/mL]
Protocol: as §2

[15] = target: T2, recombinant human CTLA4 extracellular …; test: ELISA, wells coated with human CTLA4, assay pH 7.4; lot 6978 in Tris buffer, T0; curve still rising at log 3 (OD450 at most about 0.3), no plateau; unit from the axis Log[ng/mL]
Protocol: as §1

| Binder | EC50 of bioluminescence (RLUs), Promega CTLA4 Blockade Assay, pH 6.0; unit from the axis Log (µg/mL) [1] [µg/mL] | EC50 [2] [µg/mL] | EC50 [3] [µg/mL] | EC50 [4] [µg/mL] | EC50 [5] [µg/mL] | EC50 [6] [µg/mL] | EC50 [7] [µg/mL] | EC50 [8] [µg/mL] | EC50 [9] [µg/mL] | EC50 [10] [µg/mL] | EC50 [11] [µg/mL] | EC50 [12] [µg/mL] | EC50 [13] [µg/mL] | EC50 [14] [µg/mL] | EC50 [15] [µg/mL] |
| --- | --- | --- | --- | --- | --- | --- | --- | --- | --- | --- | --- | --- | --- | --- | --- |
| B1 | 1.2 | 0.0424 | 0.022 | 0.0101 | 0.0365 | 0.462 | 0.607 | 0.537 | – | – | – | – | – | – | – |
| B2 | – | – | – | – | – | – | – | – | 0.849 | 1.18 | 1.26 | 1.54 | 0.0222 | 0.868 | 1.14 |
